Measured values from US20180355045A1 (LIMITED LIABILITY COMPANY ONCOMAX LLC ONCOMAX, published 2018).

Assays:
[1] = target: T1, fibroblast growth factor receptor 1 (FGFR1), preparation not stated (UniProt P11362 22-376, limits assumed); experiment: method not stated; antibody from the CHO-OM8-21 cell line; antibody from the CHO-OM8-21 cell line
T1 construct: also called FGF receptor; FGFR1 receptor
T1 sequence (looked up): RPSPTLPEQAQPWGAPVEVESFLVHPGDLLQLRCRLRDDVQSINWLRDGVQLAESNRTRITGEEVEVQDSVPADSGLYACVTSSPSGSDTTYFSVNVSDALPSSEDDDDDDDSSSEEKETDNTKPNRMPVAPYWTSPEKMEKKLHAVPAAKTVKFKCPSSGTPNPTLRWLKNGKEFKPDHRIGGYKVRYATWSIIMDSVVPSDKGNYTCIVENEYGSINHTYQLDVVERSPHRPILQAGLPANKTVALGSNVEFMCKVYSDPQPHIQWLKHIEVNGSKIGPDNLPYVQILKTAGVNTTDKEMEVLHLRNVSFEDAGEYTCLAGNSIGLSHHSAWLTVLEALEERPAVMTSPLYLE

[2] = target: T2, recombinant FGFR1 antigen (on the SPR chip; PA-269#37 or Sino Biologicals #10616-H08H, not told which) (human, UniProt P11362-7 22-374); experiment: SPR (BIAcore T100), FGFR1 on a CM5 chip, antibody in flow, 1:1 model
T2 sequence (looked up): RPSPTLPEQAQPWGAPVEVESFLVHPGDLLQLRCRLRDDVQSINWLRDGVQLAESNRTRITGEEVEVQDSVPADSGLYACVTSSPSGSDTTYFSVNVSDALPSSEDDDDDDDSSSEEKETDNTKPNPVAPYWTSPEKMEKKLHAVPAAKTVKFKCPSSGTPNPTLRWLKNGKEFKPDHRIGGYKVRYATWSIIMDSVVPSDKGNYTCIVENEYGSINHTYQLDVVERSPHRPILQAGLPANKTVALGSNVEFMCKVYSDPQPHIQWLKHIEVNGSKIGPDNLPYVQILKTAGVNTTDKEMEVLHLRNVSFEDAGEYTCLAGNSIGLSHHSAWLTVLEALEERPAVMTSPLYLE
Procedure: Analysis of surface plasmon resonance was performed using the BIAcore T100 System Operation Kit (BIAcore; GE Healthcare). […] Different antibody variants were diluted in HBS-P buffer (10 mmol/L HEPES, pH 7.4, 0.15 mol/L NaCl and 0.05% surfactant P20) and passed over the sensor chip surface (25 μl/min). The sensory surface was washed with HBS-P buffer, and then regenerated using 10 mmol/L glycine-HCl (pH 2). Different antibody concentrations were tested ([…]). Different cyclic kinetic properties were determined, and the results were analyzed using the 1:1 (Langmuir) binding model, inclusive of the association rate constant (Kₒₙ), dissociation rate constant (Koff) and dissociation constant (Kd) (Biacore, GE Healthcare).

Kd [1]: 9.27 nM | Kd [2]: 1.59 nM
B1: humanized anti-FGFR1 antibody OM-RCA-01 (VH3/VL5) (antibody, human IgG1, kappa, V domains shown)
VH: QVQLQESGPGLVKPSQTLSLTCTVSGYSITSDYAWSWIRQHPGKGLEWIGYITYSGTTYYNPSLKSRVTISVDTSKNQFSLKLSSVTAADTAVYYCARDGNYFDYWGQGTLVTVSS
VL: DIQLTQSPSFLSASVGDRVTITCRASSSVSSSYLHWYQQKPGKAPKLLIYRTSTLQSGVPSRFSGSGSGTEFTLTISSLQPEDFATYYCQQWSGYPLTFGGGTKVEIKR
notes: Human IgG1 (IGHG1*03) / kappa; also called VH3A/L5; OM1
